From US20230406933A1 (RANDOX LABORATORIES, published 2023)

Experiments:
[1] = target: T1, PDL1 coated in the commercial PD1:PDL1 inhibition assay (Acro Biosystems Cat# EP-101) (Homo sapiens (Human), UniProt Q9NZQ7 19-238); assay: Acro Biosystems PD1:PDL1 inhibition assay; PDL1 coated, biotinylated PD1 as competitor; reference Avelumab
T1 construct: Kit reagent; construct not described

[2] = target: PD-L1 on the cell surface in the Promega PD1/PD-L1 Blockade Bioassay (Cat# J1250); assay: cell-based or functional assay

amount of blocking relative to Avelumab [1]: 10 fold
EC50 of luciferase activity fold change, Promega PD-1/PD-L1 blockade bioassay, panel GS542 [2]: 0.165 µg/mL
B1: humanised 32.1A1 clone (VHH)
VHH: QVQLVESGGGLVQPGGSLRLSCAASGRTFREYGMGWFRQAPGKGLEWVATISSSGSYSYYADSVKGRFTISRDNSKNTLYLQMNSLRAEDTAVYYCAASSLLRGSSSRAESYDSWGQGTLVTVSS
notes: CDRs of 32.1A1 grafted into a model human VH3 framework; Expressed from pScreen, purified by IMAC, detected with anti-Myc HRP; also called hum-32.1A1; hum32.1A1
